Assay results as given in patent US20140024061.

Legend:
SEQ ID NO: 13 peptide = biological target: T1, SEQ ID NO: 13 peptide
T1 chain: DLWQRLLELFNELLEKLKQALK

SEQ ID NO: 2 peptide = biological target: T2, SEQ ID NO: 2 peptide
T2 chain: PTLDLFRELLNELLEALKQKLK

SEQ ID NO: 4 peptide = biological target: T3, SEQ ID NO: 4 peptide
T3 chain: PVLDLFRELLNELLQKLKK

SEQ ID NO: 5 peptide = biological target: T4, SEQ ID NO: 5 peptide
T4 chain: PTLDLFRELLNELLQKLKK

SEQ ID NO: 3 peptide = biological target: T5, SEQ ID NO: 3 peptide
T5 chain: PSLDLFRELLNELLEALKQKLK

SEQ ID NO: 14 peptide = biological target: T6, SEQ ID NO: 14 peptide
T6 chain: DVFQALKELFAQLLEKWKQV

SEQ ID NO: 12 peptide = biological target: T7, SEQ ID NO: 12 peptide
T7 chain: EVLKNLLEKLLEKLKELF

SEQ ID NO: 6 peptide = biological target: T8, SEQ ID NO: 6 peptide
T8 chain: PVLDLFRELLEELLQKLKK

B1: recombinant human LCAT (lecithin:cholesterol acyltransferase) (protein)
chain: FWLLNVLFPPHTTPKAELSNHTRPVILVPGCLGNQLEAKLDKPDVVNWMCYRKTEDFFTIWLDLNMFLPLGVDCWIDNTRVVYNRSSGLVSNAPGVQIRVPGFGKTYSVEYLDSSKLAGYLHTLVQNLVNNGYVRDETVRAAPYDWRLEPGQQEEYYRKLAGLVEEMHAAYGKPVFLIGHSLGCLHLLYFLLRQPQAWKDRFIDGFISLGAPWGGSIKPMLVLASGDNQGIPIMSSIKLKEEQRITTTSPWMFPSRMAWPEDHVFISTPSFNYTGRDFQRFFADLHFEEGWYMWLQSRDLLAGLPAPGVEVYCLYGVGLPTPRTYIYDHGFPYTDPVGVLYEDGDDTVATRSTELCGLWQGRQPQPVHLLPLHGIQHLNMVFSNLTLEHINAILLGAYRQGPPASPTASPEPPPPE
- RELATIVE ACTIVITY (Percent activity relative to SEQ ID: 1); DHE esterification by rhLCAT with peptide mHDL substrate (SEQ ID NO: 13 peptide): 0%
- RELATIVE ACTIVITY (Percent activity relative to SEQ ID: 1); DHE esterification by rhLCAT with peptide mHDL substrate (SEQ ID NO: 2 peptide): 94%
- RELATIVE ACTIVITY (Percent activity relative to SEQ ID: 1); DHE esterification by rhLCAT with peptide mHDL substrate (SEQ ID NO: 4 peptide): 86%
- RELATIVE ACTIVITY (Percent activity relative to SEQ ID: 1); DHE esterification by rhLCAT with peptide mHDL substrate (SEQ ID NO: 5 peptide): 65%
- RELATIVE ACTIVITY (Percent activity relative to SEQ ID: 1); DHE esterification by rhLCAT with peptide mHDL substrate (SEQ ID NO: 3 peptide): 87%
- RELATIVE ACTIVITY (Percent activity relative to SEQ ID: 1); DHE esterification by rhLCAT with peptide mHDL substrate (SEQ ID NO: 14 peptide): 0%
- RELATIVE ACTIVITY (Percent activity relative to SEQ ID: 1); DHE esterification by rhLCAT with peptide mHDL substrate (SEQ ID NO: 12 peptide): 21%
- RELATIVE ACTIVITY (Percent activity relative to SEQ ID: 1); DHE esterification by rhLCAT with peptide mHDL substrate (SEQ ID NO: 6 peptide): 65%
